Source: patent US20240279309A1 (Molecular Partners, published 2024)
One block for each binder: values may come before it.

Tests used:
[1] = target: T1, CD40 receptor on cells (HEK293 reporter cells expressing CD40; primary human B cells) (human, UniProt P25942 21-277); experiment: cell-based or functional assay
[2] = target: T1, CD40 receptor on cells (HEK293 reporter …); experiment: cell-based or functional assay; remark: listed apart in the source
[3] = target: T1, CD40 receptor on cells (HEK293 reporter …); experiment: cell-based or functional assay; remark: listed apart in the source
[4] = target: T1, CD40 receptor on cells (HEK293 reporter …); experiment: cell-based or functional assay; remark: listed apart in the source
[5] = target: T2, biotinylated human CD40 (recombinant human CD40 target) (human, UniProt P25942 21-194, biotinylated (site not stated)); experiment: SPR (ProteOn), biotinylated human CD40 on NLC chip, ankyrin repeat protein injected, 1:1 Langmuir, PBST
T2 construct: The HTRF and SPR texts say only 'biotinylated human CD40'; the Materials list a bought Fc fusion of the extracellular domain of human CD40 (ACRO Biosystems) as the only recombinant CD40; also called hCD40; Recombinant Fc fusion protein of the extracellular domain of human CD40; not shown: IgG1 Fc domain
T2 sequence (P25942 other isoform, or with tags, fused parts or gaps): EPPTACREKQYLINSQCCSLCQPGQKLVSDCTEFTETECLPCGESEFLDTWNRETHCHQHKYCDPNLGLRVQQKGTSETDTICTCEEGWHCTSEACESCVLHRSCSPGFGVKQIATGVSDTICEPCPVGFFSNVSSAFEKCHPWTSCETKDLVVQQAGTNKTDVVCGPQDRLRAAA
Protocol: Briefly, biotinylated human CD40 was diluted in PBST (PBS, pH 7.4 containing 0.005% Tween 20®) and coated on two lanes of a NLC chip (BioRad) to levels of respectively 400 and 700 resonance units (RU). The interaction of ankyrin repeat protein and hCD40 was then measured by injecting 200 μl running buffer (PBS, pH 7.4 containing 0.005% Tween 20®) containing serial dilutions of ankyrin repeat proteins covering a concentration range between 50 nM and 3 nM for multi-trace SPR measurements (on-rate measurement), followed by a running buffer flow for at least 10 minutes at a constant flow rate of 100 μl/min (off-rate measurement). The regeneration was performed using 30 μl of 10 mM Glycine-HCl pH 2. The signals (i.e. resonance unit (RU) values) of the interspots and a reference injection (i.e. injection of running buffer only) were subtracted from the RU traces obtained after injection of ankyrin repeat protein (double-referencing). Based on the SPR traces obtained from the on-rate and off-rate measurements, the on- and off-rate of the corresponding ankyrin repeat protein—CD40 interaction was determined using a 1:1 Langmuir kinetic model.
Dissociation constants (KD) were calculated from the estimated on- and off-rates using standard procedures known to the person skilled in the art. KD values of the binding interactions of selected ankyrin repeat proteins with human CD40 were determined to be in the nanomolar range. Table 2 provides the KD values of some selected ankyrin repeat proteins as examples.

T1 sequence (P25942 21-277): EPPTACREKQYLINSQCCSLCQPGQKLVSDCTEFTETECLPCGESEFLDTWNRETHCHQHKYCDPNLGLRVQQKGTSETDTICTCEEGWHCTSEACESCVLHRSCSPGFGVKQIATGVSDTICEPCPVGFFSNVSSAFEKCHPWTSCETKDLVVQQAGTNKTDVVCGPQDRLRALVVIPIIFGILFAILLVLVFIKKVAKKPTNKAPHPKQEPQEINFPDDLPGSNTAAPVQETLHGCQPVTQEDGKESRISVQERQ

efficacy of CD86 upregulation on human B cells with FAP-CHO, fold against the monovalent F-C format (SMA014) [4]: 2 fold
potency of CD86 upregulation on human B cells with FAP-CHO, fold against the monovalent F-C format (SMA014) [4]: 20 fold
EC50 [nM], % CD86, human B cells with FAP-CHO, w/o HSA [1]: 0.23 nM
EC50 [nM], MFI CD86, human B cells with FAP-CHO, w/o HSA [1]: 0.74 nM
Efficacy [MFI at highest dose], MFI CD86, human B cells with FAP-CHO, w/o HSA [2]: 6270 MFI
Efficacy at highest dose, % CD86, human B cells with FAP-CHO, w/o HSA [2]: 86.8%
Efficacy [MFI at highest dose], MFI CD86, human B cells with WT-CHO (no FAP), w/o HSA [3]: 252 MFI
Efficacy at highest dose, % CD86, human B cells with WT-CHO (no FAP), w/o HSA [3]: 46%
B2: SMA104 (SEQ ID NO: 102) (designed binder)
chain: MRGSHHHHHHGSDLGEKLLVAALYGQDDEVRELLKAGADVNAKDQWGLTPLHKAALQGHLEIVEVLLKAGADVNAKDERGHTPLHWAARFGHLEIVEVLLKAGADVNAQDQKGYTPADLAALWGHEDIAEVLQKAAGSPTPTPTTPTPTPTTPTPTPTGSDLGKKLLQAARAGQLDEVRELLKAGADVNAKDTWGFTPLHIAAESGHLEIVEVLLKAGADVNAKDVQGRTPLHIAAHSGHLEIVEVLLKAGADVNAKDFRGWTPLHLAAWSGHLEIVEILLKAGADVNAQDKSGKTPADLAARAGHQDIAEVLQKAAGSPTPTPTTPTPTPTTPTPTPTGSDLGKKLLQAARAGQLDEVRELLKAGADVNAKDTWGFTPLHIAAESGHLEIVEVLLKAGADVNAKDVQGRTPLHIAAHSGHLEIVEVLLKAGADVNAKDFRGWTPLHLAAWSGHLEIVEILLKAGADVNAQDKSGKTPADLAARAGHQDIAEVLQKAA

Kd [5]: 73.5 nM
B3: ankyrin repeat domain of SEQ ID NO: 31 (designed binder)
chain: MRGSHHHHHHGSDLGKKLLWAAAAGQLDEVRELLKAGADVNAKDHVGYTPLHIAALAGHLEIVEVLLKAGEDVNAKDHKGRTPLHVAAAVGHLEIVEVLLKAGADVNAKDQQGVTPLHIAAITGHLEIVEVLLKAGADVNAQDKSGKTPADLAARAGHQDIAEVLQKAA
notes: Expressed in E. coli from a pQE30 derivative that provides an N-terminal His-tag; purified by its His-tag for SPR

EC50 [nM], % CD86, human B cells with FAP-CHO, w HSA [1]: 72.3 nM
EC50 [nM], % CD86, human B cells with FAP-CHO, w/o HSA [1]: 11.4 nM
EC50 [nM], MFI CD86, human B cells with FAP-CHO, w HSA [1]: 52 nM
EC50 [nM], MFI CD86, human B cells with FAP-CHO, w/o HSA [1]: 28.9 nM
Efficacy [MFI at highest dose], MFI CD86, human B cells with FAP-CHO, w HSA [2]: 799 MFI
Efficacy [MFI at highest dose], MFI CD86, human B cells with FAP-CHO, w/o HSA [2]: 1640 MFI
Efficacy at highest dose, % CD86, human B cells with FAP-CHO, w HSA [2]: 27%
Efficacy at highest dose, % CD86, human B cells with FAP-CHO, w/o HSA [2]: 43.4%
Efficacy [MFI at highest dose], MFI CD86, human B cells with WT-CHO (no FAP), w HSA [3]: 299 MFI
Efficacy [MFI at highest dose], MFI CD86, human B cells with WT-CHO (no FAP), w/o HSA [3]: 291 MFI
Efficacy at highest dose, % CD86, human B cells with WT-CHO (no FAP), w HSA [3]: 13.7%
Efficacy at highest dose, % CD86, human B cells with WT-CHO (no FAP), w/o HSA [3]: 12.5%
B5: SMA087 (SEQ ID NO: 100) (designed binder)
chain: MRGSHHHHHHGSDLGKKLLEAARAGQDDEVRELLKAGADVNAKDYFSHTPLHLAARNGHLKIVEVLLKAGADVNAKDFAGKTPLHLAAADGHLEIVEVLLKAGADVNAQDIFGKTPADIAADAGHEDIAEVLQKAAGSPTPTPTTPTPTPTTPTPTPTGSDLGEKLLVAALYGQDDEVRELLKAGADVNAKDQWGLTPLHKAALQGHLEIVEVLLKAGADVNAKDERGHTPLHWAARFGHLEIVEVLLKAGADVNAQDQKGYTPADLAALWGHEDIAEVLQKAAGSPTPTPTTPTPTPTTPTPTPTGSDLGKKLLQAARAGQLDEVRELLKAGADVNAKDTWGFTPLHIAAESGHLEIVEVLLKAGADVNAKDVQGRTPLHIAAHSGHLEIVEVLLKAGADVNAKDFRGWTPLHLAAWSGHLEIVEILLKAGADVNAQDKSGKTPADLAARAGHQDIAEVLQKAA

Kd [5]: 12 nM
B6: ankyrin repeat domain of SEQ ID NO: 22 (designed binder)
chain: MRGSHHHHHHGSDLGKKLLQAARAGQLDEVRELLKAGADVNAKDEFGQTPLHIAAKSGHLEIVEVLLKAGADVNAKDVYGRTPLHLAAQYGHLEIVEVLLKAGADVNAKDTQGVTPLHVAAFKGHLEIVEVLLKAGADVNAQDKSGKTPADLAARAGHQDIAEVLQKAA
notes: as for B3

The remaining lines, values behind:

B1: AS579 (SEQ ID NO: 105) (designed binder)
chain: MRGSHHHHHHGSDLGKKLLEAARAGQDDEVRELLKAGADVNAKDYFSHTPLHLAARNGHLKIVEVLLKAGADVNAKDFAGKTPLHLAAADGHLEIVEVLLKAGADVNAQDIFGKTPADIAADAGHEDIAEVLQKAAGSPTPTPTTPTPTPTTPTPTPTGSDLGKKLLEAARAGQDDEVRELLKAGADVNAKDYFSHTPLHLAARNGHLKIVEVLLKAGADVNAKDFAGKTPLHLAAADGHLEIVEVLLKAGADVNAQDIFGKTPADIAADAGHEDIAEVLQKAAGSPTPTPTTPTPTPTTPTPTPTGSDLGEKLLVAALYGQDDEVRELLKAGADVNAKDQWGLTPLHKAALQGHLEIVEVLLKAGADVNAKDERGHTPLHWAARFGHLEIVEVLLKAGADVNAQDQKGYTPADLAALWGHEDIAEVLQKAAGSPTPTPTTPTPTPTTPTPTPTGSDLGKKLLQAARAGQLDEVRELLKAGADVNAKDTWGFTPLHIAAESGHLEIVEVLLKAGADVNAKDVQGRTPLHIAAHSGHLEIVEVLLKAGADVNAKDFRGWTPLHLAAWSGHLEIVEILLKAGADVNAQDKSGKTPADLAARAGHQDIAEVLQKAAGSPTPTPTTPTPTPTTPTPTPTGSDLGKKLLQAARAGQLDEVRELLKAGADVNAKDTWGFTPLHIAAESGHLEIVEVLLKAGADVNAKDVQGRTPLHIAAHSGHLEIVEVLLKAGADVNAKDFRGWTPLHLAAWSGHLEIVEILLKAGADVNAQDKSGKTPADLAARAGHQDIAEVLQKAA
EC50 [nM], % CD86, human B cells with FAP-CHO, w HSA [1]: 10.2 nM
EC50 [nM], % CD86, human B cells with FAP-CHO, w/o HSA [1]: 2.27 nM
EC50 [nM], MFI CD86, human B cells with FAP-CHO, w HSA [1]: 23.1 nM
EC50 [nM], MFI CD86, human B cells with FAP-CHO, w/o HSA [1]: 10 nM
Efficacy [MFI at highest dose], MFI CD86, human B cells with FAP-CHO, w HSA [2]: 1780 MFI
Efficacy [MFI at highest dose], MFI CD86, human B cells with FAP-CHO, w/o HSA [2]: 4860 MFI
Efficacy at highest dose, % CD86, human B cells with FAP-CHO, w HSA [2]: 71.9%
Efficacy at highest dose, % CD86, human B cells with FAP-CHO, w/o HSA [2]: 83%
Efficacy [MFI at highest dose], MFI CD86, human B cells with WT-CHO (no FAP), w HSA [3]: 242 MFI
Efficacy [MFI at highest dose], MFI CD86, human B cells with WT-CHO (no FAP), w/o HSA [3]: 252 MFI
Efficacy at highest dose, % CD86, human B cells with WT-CHO (no FAP), w HSA [3]: 40.1%
Efficacy at highest dose, % CD86, human B cells with WT-CHO (no FAP), w/o HSA [3]: 42%

B4: SMA014 (SEQ ID NO: 99) (designed binder)
chain: MRGSHHHHHHGSDLGEKLLVAALYGQDDEVRELLKAGADVNAKDQWGLTPLHKAALQGHLEIVEVLLKAGADVNAKDERGHTPLHWAARFGHLEIVEVLLKAGADVNAQDQKGYTPADLAALWGHEDIAEVLQKAAGSPTPTPTTPTPTPTTPTPTPTGSDLGKKLLQAARAGQLDEVRELLKAGADVNAKDTWGFTPLHIAAESGHLEIVEVLLKAGADVNAKDVQGRTPLHIAAHSGHLEIVEVLLKAGADVNAKDFRGWTPLHLAAWSGHLEIVEILLKAGADVNAQDKSGKTPADLAARAGHQDIAEVLQKAA
EC50 [nM], % CD86, human B cells with FAP-CHO, w HSA [1]: 6.15 nM
EC50 [nM], % CD86, human B cells with FAP-CHO, w/o HSA [1]: 4.21 nM
EC50 [nM], MFI CD86, human B cells with FAP-CHO, w HSA [1]: 7.7 nM
EC50 [nM], MFI CD86, human B cells with FAP-CHO, w/o HSA [1]: 8.46 nM
Efficacy [MFI at highest dose], MFI CD86, human B cells with FAP-CHO, w HSA [2]: 2190 MFI
Efficacy [MFI at highest dose], MFI CD86, human B cells with FAP-CHO, w/o HSA [2]: 2440 MFI
Efficacy at highest dose, % CD86, human B cells with FAP-CHO, w HSA [2]: 47%
Efficacy at highest dose, % CD86, human B cells with FAP-CHO, w/o HSA [2]: 48.4%
Efficacy [MFI at highest dose], MFI CD86, human B cells with WT-CHO (no FAP), w HSA [3]: 310 MFI
Efficacy [MFI at highest dose], MFI CD86, human B cells with WT-CHO (no FAP), w/o HSA [3]: 294 MFI
Efficacy at highest dose, % CD86, human B cells with WT-CHO (no FAP), w HSA [3]: 13.3%
Efficacy at highest dose, % CD86, human B cells with WT-CHO (no FAP), w/o HSA [3]: 13.2%

B7: DARPin® protein #29 (SEQ ID NO: 29) (designed binder)
chain: MRGSHHHHHHGSDLGKKLLQAARAGQLDEVRELLKAGADVNAKDTWGFTPLHIAAESGHLEIVEVLLKAGADVNAKDVQGRTPLHIAAHSGHLEIVEVLLKAGADVNAKDFRGWTPLHLAAWSGHLEIVEILLKAGADVNAQDKSGKTPADLAARAGHQDIAEVLQKAA
notes: His-tagged as expressed for HTRF and SPR
Kd [5]: 73 nM
